In paper PMC8835902:
pKd: −log10 of the molar value.

Legend:
[1] = target: LDgp5 (LoopDel);thioredoxin (trx) D5A;E7A;beta-hairpin;loop;replaced;by;SGSG (bacteriophage T7;Escherichia coli?) (UniProt P00581+P0AA25); test: EMSA; settings: 20 mM Hepes pH 7.5, 1 mM EDTA, 100 mM KCl, 0.1 mM bME, 5% glycerol, 0.10 mg/mL BSA, 10 nM DNA, 25 C (30 min; 15 min + 15 min for supershift)
[2] = target: WTgp5-trx complex (T7 gp5 DNA polymerase D5A, E7A with thioredoxin) (bacteriophage T7 | not stated) (UniProt P00581)

| Substance | pKd [1] | further results |
| --- | --- | --- |
| GGATTATTTACATTGGCAGATTCACC / TTATTAGTTATGATATTCATGTATAGTTATATGGTGAATCTGCCAATGTAAATAATCC / TATTCATGTATAGTTATGTAGAGACCGAGATCCGCGCTGCCAGTCGGCAGAGCC [Fork template 0gap] | 6.89 |  |
| GGATTATTTACATTGGCAGATTCACC / TTATTAGTTATGATATTCATGTATAGTTATATGGTGAATCTGCCAATGTAAATAATCC / TATTCATGTATAGTTATGTAGAGTCCGAGATCCGCGCTGCCAGTCGGCAGAGCC [Fork template 1gap] | 6.89 |  |
| GGATTATTTACATTGGCAGATTCACC / TTATTAGTTATGATATTCATGTATAGTTATATGGTGAATCTGCCAATGTAAATAATCC / TATTCATGTATAGTTATGTAGAGTTCCGAGATCCGCGCTGCCAGTCGGCAGAGCC [Fork template 2gap] | 6.89 |  |
| GGATTATTTACATTGGCAGATTCACC / TTATTAGTTATGATATTCATGTATAGTTATATGGTGAATCTGCCAATGTAAATAATCC [Linear template-58nt] |  | binding signal (fold lower affinity than WTgp5) [1]: 2 |
| T7 gp4 E343Q with truncated C-terminal tails (from UniProt P03692 1-566) (enzyme) |  | fold decrease in 2-aminopurine fluorescence of fork DNA (local base-pair unwinding), 2-AP at N+3, against the EQgp4-WTgp5 complex [2]: 2 fold |
